Tests used:
human FAPα_His [1] = molecular target: T1, human FAPα_His (human, UniProt Q12884 26-760); assay: Biacore, scFv; 8E3, human FAPα
T1 construct: Fusion protein expressed in 293F cells and purified on a nickel column; also called huFAP; recombinant huFAPα

mouse FAPα_His = molecular target: T2, mouse FAPα_His (mouse, UniProt P97321 26-761); assay: Biacore, scFv; 8E3, murine FAP
T2 construct: Fusion protein expressed in 293F cells and purified on a nickel column; also called mFAP

human FAPα_His [2] = molecular target: T1, human FAPα_His; assay: Biacore, scFv; reference is parent antibody 10A4

T1 sequence (Q12884 other isoform, or with tags, fused parts or gaps limits assumed): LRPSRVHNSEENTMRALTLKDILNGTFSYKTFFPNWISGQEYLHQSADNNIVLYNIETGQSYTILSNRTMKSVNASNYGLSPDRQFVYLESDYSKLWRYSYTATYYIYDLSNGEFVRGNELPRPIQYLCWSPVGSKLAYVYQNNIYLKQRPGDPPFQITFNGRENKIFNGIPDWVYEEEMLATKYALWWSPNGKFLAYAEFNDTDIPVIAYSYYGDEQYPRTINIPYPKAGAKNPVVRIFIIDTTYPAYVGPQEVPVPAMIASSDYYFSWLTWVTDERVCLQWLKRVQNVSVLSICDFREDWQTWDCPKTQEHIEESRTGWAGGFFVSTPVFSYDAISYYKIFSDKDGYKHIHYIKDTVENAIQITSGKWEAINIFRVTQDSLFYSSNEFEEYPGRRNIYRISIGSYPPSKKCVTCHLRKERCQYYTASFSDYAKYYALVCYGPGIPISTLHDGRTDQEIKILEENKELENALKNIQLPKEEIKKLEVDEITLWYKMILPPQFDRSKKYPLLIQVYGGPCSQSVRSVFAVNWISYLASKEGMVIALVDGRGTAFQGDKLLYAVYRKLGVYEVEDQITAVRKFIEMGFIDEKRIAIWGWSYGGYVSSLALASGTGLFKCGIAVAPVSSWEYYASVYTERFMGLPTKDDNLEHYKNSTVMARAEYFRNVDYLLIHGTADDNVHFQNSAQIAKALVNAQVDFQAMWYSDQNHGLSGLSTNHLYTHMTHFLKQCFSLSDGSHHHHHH
T2 sequence (P97321 other isoform, or with tags, fused parts or gaps limits assumed): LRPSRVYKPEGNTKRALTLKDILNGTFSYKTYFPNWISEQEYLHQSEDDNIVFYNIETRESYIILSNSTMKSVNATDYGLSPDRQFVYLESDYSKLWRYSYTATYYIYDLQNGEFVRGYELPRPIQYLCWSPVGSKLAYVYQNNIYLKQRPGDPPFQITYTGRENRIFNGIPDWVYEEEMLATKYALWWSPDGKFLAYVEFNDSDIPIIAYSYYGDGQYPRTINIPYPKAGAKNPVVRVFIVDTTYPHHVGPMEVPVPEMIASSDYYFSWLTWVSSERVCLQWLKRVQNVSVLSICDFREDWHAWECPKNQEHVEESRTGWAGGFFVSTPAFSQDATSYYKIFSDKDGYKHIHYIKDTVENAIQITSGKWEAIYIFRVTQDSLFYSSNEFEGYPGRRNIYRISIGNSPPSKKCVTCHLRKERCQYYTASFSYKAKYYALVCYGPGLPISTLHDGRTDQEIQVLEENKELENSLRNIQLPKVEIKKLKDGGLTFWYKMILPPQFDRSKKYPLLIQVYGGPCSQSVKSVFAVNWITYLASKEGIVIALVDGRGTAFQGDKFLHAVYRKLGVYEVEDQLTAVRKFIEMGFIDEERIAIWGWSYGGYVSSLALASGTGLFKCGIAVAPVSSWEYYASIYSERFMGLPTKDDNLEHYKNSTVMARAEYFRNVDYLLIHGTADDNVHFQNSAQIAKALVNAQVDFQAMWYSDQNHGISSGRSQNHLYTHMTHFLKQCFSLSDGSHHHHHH

Kd (human FAPα_His [1]): 81.6 nM | Kd (mouse FAPα_His): 267 nM | fold affinity against 10A4 (human FAPα_His [2]): 2.4 times
B1: antibody 8E3 (scFv), affinity-matured from 10A4 (scFv)
scFv: QVQLVQSGAEVKKPGSSVKVSCKASGGTFSSYAISWVRQAPGQGLEWMGGIIPIFGTANYAQKFQGRVTITADKSTSTAYMELSSLRSEDTAVYYCARDAADRDYWGQGTTVTVSSGGGGSGGGGSGGGGSDIVMTQSPLSLPVTPGEPASISCRSSQSLLHPNGFNHLYWYLQKPGQSPQLLIYVGGNRASGVPDRFSGSGSGTDFTLKISRVEAEDVGVYYCQQRNNKNRTFGQGTKVEIKR
notes: also called hu8E3

Source: patent US20200347151A1 (CRAGE MEDICAL, published 2020)
